Data from article PMC9008408.

Assays:
[1] = CHX chase, western blot of remaining protein, HEK293; settings: glycan lost; control: wild type TIM-4, no TM
[2] = anti-Flag IP, ubiquitin blot, MG132, A549-LV-TIM-4-Flag; settings: glycan lost; control: no TM
[3] = anti-HA IP, ubiquitin blot, MG132, A549; settings: glycan lost; control: wild type TIM-4
[4] = confocal immunofluorescence, mCherry-Sec61b ER marker, A549; settings: glycan lost; control: wild type TIM-4

B1: TIM-4: TM (protein)
parent chain: MSKEPLILWLMIEFWWLYLTPVTSETVVTEVLGHRVTLPCLYSSWSHNSNSMCWGKDQCPYSGCKEALIRTDGMRVTSRKSAKYRLQGTIPRGDVSLTILNPSESDSGVYCCRIEVPGWFNDVKINVRLNLQRASTTTHRTATTTTRRTTTTSPTTTRQMTTTPAALPTTVVTTPDLTTGTPLQMTTIAVFTTANTCLSLTPSTLPEEATGLLTPEPSKEGPILTAESETVLPSDSWSSVESTSADTVLLTSKESKVWDLPSTSHVSMWKTSDSVSSPQPGASDTAVPEQNKTTKTGQMDGIPMSMKNEMPISQLLMIIAPSLGFVLFALFVAFLLRGKLMETYCSQKHTRLDYIGDSKNVLNDVQHGREDEDGLFTL
With B1 as the protein, how does the degradation_or_half_life [1] read?
The degradation_or_half_life was “decreases”.

And the “other: ubiquitination” value [2]?
Its value is “increases”.

B2: TIM-4: N291Q (protein)
parent chain: B1 parent chain
With B2 as the protein, how does the “other: ubiquitination” value [3] read?
Its value is “increases”.

And the localisation_or_trafficking [4]?
Its localisation_or_trafficking is “changes, co-localized with the ER-tracker compared with wild type TIM-4”.
